Measurements as given in paper PMC4939597, “Mechanism for insulin-like peptide 5 distinguishing the homologous relaxin family peptide receptor 3 and 4” (Scientific Reports, 2016).
No end group written: not given here.

How the values were obtained:
[1] = target: T1, human RXFP3 (Homo sapiens, UniProt Q9NSD7); experiment: Receptor activation assay, CRE-controlled NanoLuc reporter; assay type: cell-based
T1 construct: expressed in transfected cells; host or cells: HEK293T
T1 sequence (Q9NSD7 1-469): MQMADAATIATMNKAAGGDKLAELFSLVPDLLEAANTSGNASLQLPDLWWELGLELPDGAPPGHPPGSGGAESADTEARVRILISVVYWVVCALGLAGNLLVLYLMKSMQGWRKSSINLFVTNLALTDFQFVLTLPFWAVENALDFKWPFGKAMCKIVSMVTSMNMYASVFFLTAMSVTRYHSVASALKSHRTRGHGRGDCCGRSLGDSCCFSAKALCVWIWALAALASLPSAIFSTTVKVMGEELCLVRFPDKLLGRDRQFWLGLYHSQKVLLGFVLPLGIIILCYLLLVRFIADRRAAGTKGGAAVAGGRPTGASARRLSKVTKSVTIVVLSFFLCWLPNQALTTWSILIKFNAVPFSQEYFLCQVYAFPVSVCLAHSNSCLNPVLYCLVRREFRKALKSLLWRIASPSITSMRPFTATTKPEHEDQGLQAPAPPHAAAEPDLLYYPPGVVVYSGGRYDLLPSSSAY
Procedure: (§1) Figure 4 Receptor activation activities of the mature INSL5 and R3/I5 mutants towards RXFP3 and RXFP4. HEK293T cells transiently cotransfected by human RXFP3 or human RXFP4 and a CRE-controlled NanoLuc reporter were used for the activation assays. The measured data were expressed as mean ± SE (n = 3) and fitted to sigmoidal or linear curves using the software SigmaPlot 10.0.
(§2) The receptor activation assays of the mature INSL5 and R3/I5 mutants were carried out using a cAMP-response element (CRE)-controlled NanoLuc reporter according to our previous procedure. Briefly, HEK293T cells were transiently cotransfected with the expression construct of human RXFP3 or human RXFP4 and the CRE-controlled NanoLuc reporter vector pNL1.2/CRE. Next day, the transfected cells were trypsinised, seeded into a 96-well plate, and continuously cultured for 24–36 h to ~90% confluence. To start activation assay, the medium was removed and the activation solution (serum-free DMEM medium plus 1% bovine serum albumin) containing 1.0 μM of forskolin and varied concentrations of peptide was added (100 μl/well). After being continuously cultured at 37 °C for 4 h, the activation solution was removed and the cells were lysed by lysis solution (100 μl/well, from Promega). The cell lysate was then transferred to a white opaque 96-well plate (50 μl/well), mixed with the freshly diluted substrate (50 μl/well), and bioluminescence was immediately measured on a SpectraMax M5 plate reader (Molecular Devices) using the luminescence mode. The measured bioluminescence data were expressed as mean ± SE (n = 3) and fitted to sigmoidal or linear curves using the SigmaPlot10.0 software.

[2] = target: T2, human RXFP4 (Homo sapiens, UniProt Q8TDU9); experiment: Receptor binding assay, competition with NanoLuc-conjugated R3/I5 tracer; conditions: for pIC50 RXFP4: HEK293T cells transiently overexpressing human RXFP4, 0.5 nM NanoLuc-conjugated R3/I5 tracer, 21 °C, 2 h, mean ± SE, n = 3, SEM
T2 construct: expressed in transfected cells; host or cells: HEK293T
T2 sequence (Q8TDU9 whole entry): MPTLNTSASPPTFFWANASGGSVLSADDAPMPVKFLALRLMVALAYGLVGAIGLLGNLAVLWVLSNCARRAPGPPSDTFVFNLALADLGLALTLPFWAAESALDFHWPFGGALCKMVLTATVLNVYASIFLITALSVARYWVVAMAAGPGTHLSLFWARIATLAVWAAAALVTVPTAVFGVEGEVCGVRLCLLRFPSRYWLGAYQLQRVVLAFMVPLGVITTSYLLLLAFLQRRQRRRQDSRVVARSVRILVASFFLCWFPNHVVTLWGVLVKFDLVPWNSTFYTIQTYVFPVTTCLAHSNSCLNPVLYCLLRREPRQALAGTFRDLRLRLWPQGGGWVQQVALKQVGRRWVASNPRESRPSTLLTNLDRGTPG
Procedure: (§3) Figure 3 Receptor binding activities of the mature INSL5 and R3/I5 mutants towards RXFP3 and RXFP4. A NanoLuc-conjugated R3/I5 peptide was used as tracer and HEK293T cells transiently overexpressing human RXFP3 or human RXFP4 were used as receptor source. The tracer concentration used in these assays was 0.5 nM. The nonspecific binding was obtained by competition with 1.0 μM of relaxin-3. The measured data were expressed as mean ± SE (n = 3) and fitted to sigmoidal curves using the software SigmaPlot 10.0.
(§4) The receptor binding assays of the mature INSL5 and R3/I5 mutants were carried out using a NanoLuc-conjugated R3/I5 peptide as tracer and the human embryonic kidney (HEK) 293T cells transiently overexpressing human RXFP3 or human RXFP4 as receptor source. Nonspecific binding was obtained by competition with 1.0 μM of human relaxin-3. Briefly, HEK293T cells were transiently transfected with the expression construct of human RXFP3 or human RXFP4. Next day, the transfected cells were trypsinised, seeded into a 96-well plate, and continuously cultured for 24–36 h to confluence. To start binding assay, the medium was removed and the binding solution (serum-free DMEM medium plus 1% bovine serum albumin) containing 0.5 nM of the NanoLuc-conjugated R3/I5 tracer and varied concentrations of competitor was added (100 μl/well). After incubation at 21 °C for 2 h, the binding solution was removed and the cells were washed twice by ice-cold phosphate-buffered saline (200 μl/well for each wash). Thereafter, the cells were lysed by lysis solution (100 μl/well, from Promega, Madison, WI, USA) and the cell lysate was transferred to a white opaque 96-well plate (50 μl/well). After mixing with the freshly diluted substrate (50 μl/well), bioluminescence was immediately measured on a SpectraMax M5 plate reader (Molecular Devices, Sunnyvale, CA, USA) using the luminescence mode. The measured bioluminescence data were expressed as mean ± SE (n = 3) and fitted to sigmoidal curves using the SigmaPlot10.0 software.

[3] = target: T1, human RXFP3; experiment: as above; conditions: HEK293T cells transiently overexpressing human RXFP3; 0.5 nM NanoLuc-conjugated R3/I5 tracer; 21 °C, 2 h; mean ± SE, n = 3; SEM
Procedure: as §3, §4

[4] = target: T2, human RXFP4; experiment: Receptor activation assay, CRE-controlled NanoLuc reporter; assay type: cell-based; conditions: HEK293T cells cotransfected with human RXFP4 and CRE-controlled NanoLuc reporter; 1.0 μM forskolin; 37 °C, 4 h; mean ± SE, n = 3; SEM
Procedure: as §1, §2

| pIC50 RXFP3 [3] | pIC50 RXFP4 [2] | pEC50 RXFP4 [4] | Compound | also measured |
| --- | --- | --- | --- | --- |
| – | – | – | CC[C@H](C)[C@@H]1NC(=O)[C@H](Cc2ccccc2)NC(=O)[C@H]([C@@H](C)CC)NC(=O)[C@H](C(C)C)NC(=O)[C@H]([C@@H](C)O)NC(=O)[C@H](CCCNC(=N)N)NC(=O)[C@H]([C@@H](C)CC)NC(=O)[C@H](Cc2ccc(O)cc2)NC(=O)[C@H](CCC(=O)O)NC(=O)[C@H](CCCNC(=N)N)NC(=O)CNC(=O)[C@@H](NC(=O)[C@H](CC(C)C)NC(=O)[C@H](CCCNC(=N)N)NC(=O)[C@@H](NC(=O)[C@H](CO)NC(=O)[C@H](Cc2ccc(O)cc2)NC(=O)[C@@H](N)CCCCN)C(C)C)CSSC[C@@H]2NC(=O)[C@@H](NC(=O)[C@H](CC(C)C)NC(=O)[C@@H](NC(=O)[C@H](CCC(N)=O)NC(=O)[C@H](CC(C)C)NC(=O)[C@H](CC(=O)O)NC(=O)[C@@H](N)CCC(N)=O)[C@@H](C)O)CSSC[C@H](NC(=O)CNC(=O)[C@H](CC(=O)O)NC(=O)[C@H]([C@@H](C)O)NC2=O)C(=O)N[C@@H](CO)C(=O)N[C@@H](CCSC)C(=O)N[C@@H]([C@@H](C)O)C(=O)N[C@@H](CC(=O)O)C(=O)N[C@@H](CC(C)C)C(=O)N[C@@H](CO)C(=O)N[C@@H](C)C(=O)N[C@@H](CC(C)C)C(=O)N[C@H](C(=O)O)CSSC[C@@H](C(=O)NCC(=O)NCC(=O)N[C@@H](CO)C(=O)N[C@@H](CCCNC(=N)N)C(=O)N[C@@H](Cc2c[nH]c3ccccc23)C(=O)O)NC1=O | fold higher activation potency towards RXFP3 than its parent mutant ([1]; higher than the 4-mutation INSL5): ~ 5 fold; fold lower activation potency towards RXFP3 than relaxin-3 ([1]; lower than relaxin-3): ~ 20 fold |
| – | – | – | CC[C@H](C)[C@@H]1NC(=O)[C@H](Cc2ccc(O)cc2)NC(=O)[C@H]([C@@H](C)CC)NC(=O)[C@H](C(C)C)NC(=O)[C@H]([C@@H](C)O)NC(=O)[C@H](CCCNC(=N)N)NC(=O)[C@H]([C@@H](C)CC)NC(=O)[C@H](Cc2ccc(O)cc2)NC(=O)[C@H](CCC(=O)O)NC(=O)[C@H](CCCNC(=N)N)NC(=O)CNC(=O)[C@@H](NC(=O)[C@H](CC(C)C)NC(=O)[C@H](CCCNC(=N)N)NC(=O)[C@@H](NC(=O)[C@H](CO)NC(=O)[C@H](CCC(=O)O)NC(=O)[C@@H](N)CCCCN)C(C)C)CSSC[C@@H]2NC(=O)[C@@H](NC(=O)[C@H](CC(C)C)NC(=O)[C@@H](NC(=O)[C@H](CCC(N)=O)NC(=O)[C@H](CC(C)C)NC(=O)[C@H](CC(=O)O)NC(=O)[C@@H](N)CCC(N)=O)[C@@H](C)O)CSSC[C@H](NC(=O)CNC(=O)[C@H](CC(=O)O)NC(=O)[C@H]([C@@H](C)O)NC2=O)C(=O)N[C@@H](CO)C(=O)N[C@@H](CCSC)C(=O)N[C@@H]([C@@H](C)O)C(=O)N[C@@H](CC(=O)O)C(=O)N[C@@H](CC(C)C)C(=O)N[C@@H](CO)C(=O)N[C@@H](C)C(=O)N[C@@H](CC(C)C)C(=O)N[C@H](C(=O)O)CSSC[C@@H](C(=O)NCC(=O)NCC(=O)N[C@@H](CO)C(=O)N[C@@H](CCCNC(=N)N)C(=O)N[C@@H](Cc2c[nH]c3ccccc23)C(=O)O)NC1=O [[L(B9)R,A(B20)G,S(B21)G]INSL5] | fold lower binding potency towards RXFP4 compared with wild-type INSL5 ([2]; lower than wild-type INSL5): ~ 6 fold |
| 8.45 ± 0.04 | 7.91 ± 0.02 | 9.02 ± 0.05 | [F(B20)Y,G(B23)A,G(B24)S]R3/I5: recombinant mature two-chain R3/I5 mutant (chain 1 RAAPYGVRLCGREFIRAVIYTCASSRW; chain 2 QDLQTLCCTDGCSMTDLSALC; disulfide (positions not given here); not fully specified; also: A-chain N-terminal pyroglutamate likely) | – |
| 8.61 ± 0.03 | 8.06 ± 0.04 | – | [G(B23)A,G(B24)S]R3/I5: recombinant mature two-chain R3/I5 mutant (chain 1 RAAPYGVRLCGREFIRAVIFTCASSRW; chain 2 QDLQTLCCTDGCSMTDLSALC; disulfide (positions not given here); not fully specified; also: A-chain N-terminal pyroglutamate likely) | – |
| – | – | 8.44 ± 0.04 | [G(B23)A,G(B24)S]R3/I5: recombinant mature two-chain R3/I5 mutant (chain 1 RAAPYGVRLCGREFIRAVIFTCASSRW; chain 2 QDLQTLCCTDGCSMTDLSALC; not fully specified; two-chain, three disulfides; A-chain N-terminal pyroglutamate likely; possible unprinted extra residues as in m2) | – |
| 8.40 ± 0.04 | 7.75 ± 0.05 | – | [R(B12)L,F(B20)Y,G(B23)A,G(B24)S]R3/I5: recombinant mature two-chain R3/I5 mutant (chain 1 RAAPYGVRLCGLEFIRAVIYTCASSRW; chain 2 QDLQTLCCTDGCSMTDLSALC; disulfide (positions not given here); not fully specified; also: A-chain N-terminal pyroglutamate likely) | – |
| – | – | 8.71 ± 0.06 | [R(B12)L,F(B20)Y,G(B23)A,G(B24)S]R3/I5: recombinant mature two-chain R3/I5 mutant (chain 1 RAAPYGVRLCGLEFIRAVIYTCASSRW; chain 2 QDLQTLCCTDGCSMTDLSALC; not fully specified; two-chain, three disulfides; A-chain N-terminal pyroglutamate likely; possible unprinted extra residues as in m2) | – |
| 8.38 ± 0.03 | 7.83 ± 0.04 | 8.16 ± 0.04 | [R(B12)L,G(B23)A,G(B24)S]R3/I5: recombinant mature two-chain R3/I5 mutant (chain 1 RAAPYGVRLCGLEFIRAVIFTCASSRW; chain 2 QDLQTLCCTDGCSMTDLSALC; disulfide (positions not given here); not fully specified; also: A-chain N-terminal pyroglutamate likely) | – |
| 8.11 ± 0.02 | 7.61 ± 0.05 | 8.24 ± 0.05 | [Y(B5)E,R(B12)L,F(B20)Y,G(B23)A,G(B24)S]R3/I5: recombinant mature two-chain R3/I5 mutant (chain 1 RAAPEGVRLCGLEFIRAVIYTCASSRW; chain 2 QDLQTLCCTDGCSMTDLSALC; disulfide (positions not given here); not fully specified; also: A-chain N-terminal pyroglutamate likely) | – |
